From the DeepSol protein solubility set

Test: soluble on expression in E. coli; label from the status in PepcDB or PDB records

Sequence | soluble on expression in E. coli
MTEEVGQKLLESLSLFKLGDIGYARIECELLTTFLEEQLENNLDSLSIHELSTNLIRNRICCREFIESRPAKKWVFLIFRLARTLFRDKTRIATFHSVNLHSEFVQVFWRNLTYQTKSYRNCKFQTFQFIASRFLRSEHDWNVTVVNCLNVTQKLIDNGENARKFVDCNLEDAVLVLLATRQMTVLQHSLEILGRLSDWSTTCRENLLCISLLRILSCEEQAREQIRIYDGVPTLLGLLSIKNSRLQWHVAWTLAQLAEQHETSLEIAQLGGISLIFAAISNPKPPGKAVGDWVAMLTGLTALLAQLAQASSNQQLMSNANGVYILGKLLAIKKNVTTDETIDSWDLLQCSIFRVLRLMYTFERSRQLLKKVLPTEIFEKFVDVGNYNSVLTDYDQIAKMYDNLIEENIEIMKDWETVNERRQAVGEVGEYELLDQLGAGAFGCVYTVRKKAQSHSENPAKLLALKEIFMTNLNDRESDKSFGDMISEVKIIKQQLRHPNIVRYRRIFVENHRLYIVMDLIQGCSLRDLIITMKEKKGNFEEKKIWAMVVQMMLALRYLHKEKQIVHRDLKPNNIMMTTDERVVITDFGLAKQKGPEYLKSAAGTIIYSCPEIVQNLPYGEKADIWSFGCCIYEMCQLQPVFHSTNMLTLAMQIVEAKYDPLNEMWSDDLRFLITSCLAPDPSARPDILKVSGMCGVRLLEYLDDVARQQASTSDMTASQSSYNIKIDESPSSLNSSTSSYKRPGRSSKTSGSGKLPPINPAPRRNHSMSAGETPRPSSIVCLPRITDKYSVMFPSAPSAIPSRRRVQTCSTEHPARSSSSTELKVSKQSDGLTVSSNVLRQIQDPVLTILNQIHRILVVTDKETISTSMNHQRRLVEMFRKNLLGRENDAVQMKTHLRKLAAESPEEIQMNLGFSDFRPVLVQSHINGYQKDQKVTKITYEQLSACIECLIAENPAAK | soluble
MSNWGDYQLGGLAPPTEPWLAIRPFLQLPHDFKIVFLSIERGLTRKNDFKTVRQLQKWAYCKPRFCGRGQSPELVIPPVGHPPSSSGLIVKIKQMIRSCVRLASQSTNKLLIFSSLSRNSQLYISMSSSDLGRGFKQGRGTGDSGQSSLYNNERRWKDDDTFNALGATDELSSFLGVCGASAQNDGSMSDVVETLTRLQCCLQDVGAHLATPPKNSSERKQKKTAFDIAMVEWINAEIDRYGDALPAIRQFILSGGGMTSAQLQYSRAICRRAERSIVPLMRDEDVDPMALKFLNRMSDLLFVLGRTACMRNKNEELTYLRPDSFTNLKWDRKSLHEKK | not soluble
MKRRLDDQESPVYAAQQRRIPGSTEAFPHQHRVLAPAPPVYEAVSETMQSATGIQYSVTPSYQVSAMPQSSGSHGPAIAAVHSSHHHPTAVQPHGGQVVQSHAHPAPPVAPVQGQQQFQRLKVVFSSFSWVKKFIFSRKYWLQLVGCGGTTSNLRY | not soluble
MRYMMTYDWMETVRNTNQWMGATANSMASYPLFSMVPNPVFNWMSAWGEVTERTFQRMVVKPDWGIRTFTCEDGKDHLVEINTVVERDFGDLIHINVTGRETQPRKVLLVAPMSGHYATLLRSTVKSLLVNCEVYVTDWHNARDIPVSAGKFDVEDYTLYLVDFMRELGPDTHVIAVCQPAPLTLAATAYLAELDPKAQPSTLTLIGGPVDPDATPTEVTDFGRRVTMGQLEQSMIQRVGFKYKGVGRMVYPGLLQLASFMSMNADRHSKAFTDQIQRVMRDEASDHDAHNRFYDEYLAVMDMTAEFYLSTVERVFKKREIARNAFIVDGHKVDISKITDVAVMTVEGANDDISAPGQCIAALDLCTGLADSKKANHLEPGAGHYGIFAGRSWRDNIRPLVIDFMNTNSRKGKSLRPANKNSAA | not soluble
MMGNKLTLPAELPDEQDLRAVLAYNMRLFRVNKGWSQEELARQCGLDRTYVSAVERKRWNIALSNIEKMAAALGVAAYQLLLPPQERLKLMTNSADTRQMPSESGI | not soluble
MSLEQCYTDVTEFAIPASTQKLYLSPVLDGFNSEIIAYNLSTSPNLEQVQTMLEQAFTEKHYENTILHSDQGWQYQHDSYHQFLEGKGIQASMSRKGNSQDNGMMESFFGILKSEMFYGYEKTFKSLNQLEQAIVDYIDYYNNKRIKVKLKGLSPVQYRTKSFGEGHHHHHH | soluble
MSLTVFKSPITGRTYHLVFNDEFDDGVIDTLKWDTRSRRSPFTRRGMYQEKPYYVLCHEDWTKELHGELRLEVSKYPTQNNVVMTGGILSLGRFMARYGYYETKASFRDCIGEGYWPAFWIHFDEADKYGKGTEIDVFEYIPKDKQIFQTLHWYKKQAMEEQQSEVQHAALDYDKSGQFKEHRSSTKYFVLDEAQSKEHTFAVEWTPEELIFYTDGKVTRRVNRKDDPKQVPSAYQMVYFSCSAGEWGGNVMENQVPAYVYFDYCRCYQESDQDAIYTVKGNGMKVPASRRVGKEGHHHHHH | not soluble
MRSFDFAPLHRASIGFDQIADLMDRVMSSDVGQPSYPPYNIEKTAADAYRISIAVAGFAETDLSVEVKENALVISARKAADEAERTFLHRGIATRAFERRFTLADHVRVTGASHENGMLHIDLKREIPEALKPRRIEIASVKSADTPERIEAKAVN | not soluble
MNLHICEVTAKNWRSVVALDVAKDQQQFIESNAFSLAESLYEGNGTSVGLYDSETLVGYAMYGWYSVKHKSVWLDRFMIDQQYQGKGYAKRFLRLLIQFLQEKFECKIIYLSLHPDNKLAMGLYESFGFRLNGDIDDEGPVVGVVMELLIDENTSL | not soluble
MAHHHHHHMSENVAAAQRRWQAGMHEVEAYLNALDSARADSAKAGLYHRAQQCMQHMEKIIRLLAKRIAREANIMAERARQALTEQQRLLQRNLRKRWKTKMLVYEENASAMLAAAEQHHYAERVREDERAHEELRSVRAGGSMAHSRSSKVQHLQSEIQLYLRQHRYREAERAQAQLSRFEKQEQQSQQRNLTHLQEQRLQAMRMKQEEQLAKMKAAYQQEKQEITRTCRAELDAMTRQHEVALQAVEERRLFLHERVQAILKAYNDADTLDPRAAGQKLIRISQLLWTSREVQQSSKRI | not soluble
MSLRQLLQKRAMQSPNLEALVGGKKRYSFQQYNERVNQLAHYLLHNGVQRGDRIGILCKNNHPFPSVMMASLKIGAVFIPLNHQLTVYELETIVKEAKLKVLVIDEEFSEVLLNVDAVKEIPYVIQTTKEGFGSFELELQKQPTTEPNVEVHEEDDAIYLFTSGTTGQAKACVIGHKNLHHYFAEIAGQREIPAGERFLSVHPLFHMSGVLSILNCIYHGVTMIFLADSNPAIIWDKIEEEKITTMLAFPAVYSYMLDELNKKERNISTFKVAQSGGTKVPETLIQKYMEKGIYMVQGYGSTEGWVVTSWHPMMGKEKMSSVGKTLKNVEVKIVHPETGHELTTNEVGEIHVKSPYMFKGYWNNEKATKKVVKDNWFNMGDAGMIDDDGFLHIMGRYKDVIIRGGDNVYPDQVEDVIHEIQGVLEVAVVGVPDDFWGEVPRAYIVKDGETTLTEESIIQYCKEKLASYKIPEVVFIDELPKNALGKVLKRELRDVVLVKEGHHHHHH | soluble
MEFNLHAVSSEEKERDFDVVIVGAGAAGFSAAVYAARSGFSVAILDKAVAGGLTAEAPLVENYLGFKSIVGSELAKLFADHAANYAKIREGVEVRSIKKTQGGFDIETNDDTYHAKYVIITTGTTHKHLGVKGESEYFGKGTSYCSTCDGYLFKGKRVVTIGGGNSGAIAAISMSEYVKNVTIIEYMPKYMCENAYVQEIKKRNIPYIMNAQVTEIVGDGKKVTGVKYKDRTTGEEKLIETDGVFIYVGLIPQTSFLKDSGVKLDERGYIVVDSRQRTSVPGVYAAGDVTSGNFAQIASAVGDGCKAALSLYSDSISKK | soluble
MRSLIGMTFLNSSVGQRRLRQNGIVLRLGPVVADRRRATLPHRQGHCLDRQDLETLLLWLQRHFLCVPLEHLLEGPAPACLRIALSVDGNPAELAEQVYPLLERYEMPASAFIGGDPRSWREAVAETLWQADATAAGPLLELLEGYSGAALMAVFERTGDDQRRSRNLDLLLRKLERLDPASQQALHAACPVPAPYSAGDWERVRRLENSGLLRFGLRGQEPHPSAGLCAEDCLGRAHRQLQQHCAAPLPVFCQARTTPAAQPGLRAALGRLGYRFAFGARNGLVDTRCDPLDLPRIEVDAAIAARPGRLAWHIYRGARP | not soluble
MSLGVKVKVINGGVLISQDLSCAGQVSTSVALPILGACGARPTVLPTAILSTHTGFKDNTYLDLSNEMSRIMSHWQKIDLEFKAIYLGYLGKEALDFWIKNIEQIIRTNQVVLIDPAMADHGKMYRGLDTDYIKKMRQLIFKATILTPNITEAAFLLNEDIPENSLEKAQVLAEKLVQRFAIPNVIITGITLSKDKIGEVGITKEGKWSIIQEKMPGDFFGTGDMFASAFLAAVLYGKNLEKSCAIAAEFVKLAIIDMDQKLESLFGPNYAAGLPWLLSELEKEGHHHHHH | soluble
